Test [1] has as its target T1, Fc portion of human IgG1-fused LGR5-ECD (R&D systems) (human, UniProt O75473 22-557, limits assumed).
T1 construct: extracellular domain; Bought reagent; also called LGRS; recombinant LGR5 protein; not shown: Fc portion of human IgG1
T1 sequence (looked up): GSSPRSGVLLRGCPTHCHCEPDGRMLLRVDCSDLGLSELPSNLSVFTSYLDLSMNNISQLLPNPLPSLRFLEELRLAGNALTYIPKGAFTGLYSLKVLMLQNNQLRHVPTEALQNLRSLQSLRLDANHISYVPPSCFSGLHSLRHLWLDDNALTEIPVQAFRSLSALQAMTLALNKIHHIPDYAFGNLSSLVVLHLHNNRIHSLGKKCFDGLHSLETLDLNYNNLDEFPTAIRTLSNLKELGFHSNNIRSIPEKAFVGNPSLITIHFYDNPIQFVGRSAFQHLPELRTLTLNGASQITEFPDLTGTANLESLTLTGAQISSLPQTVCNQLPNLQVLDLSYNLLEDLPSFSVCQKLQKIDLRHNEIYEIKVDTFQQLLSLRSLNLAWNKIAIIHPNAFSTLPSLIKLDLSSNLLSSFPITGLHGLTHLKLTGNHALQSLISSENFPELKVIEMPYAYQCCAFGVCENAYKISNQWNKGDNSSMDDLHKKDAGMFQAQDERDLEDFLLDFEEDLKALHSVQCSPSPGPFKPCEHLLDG
Kind of test: BLI (Octet), LGR5-ECD-Fc on AHC sensor. The protocol: (§1) Affinity measurement: Binding kinetics of the RSPO-derived proteins to LGRS, RNF43, or ZNRF3, and binding of the anti-ASGR Fabs to human and/or mouse ASGR1 were determined by bio-layer interferometry (BLI) using Octet Red 96 (PALL ForteBio, Fremont, CA) instruments at 30° C., 1000 rpm with either streptavidin (SA) or anti-hIgG Fc capture (AHC) biosensors. […] Following capture of ECDs of RNF43, ZNRF3 or LGRS, the biosensors were dipped into wells containing the relevant test molecules at 7 different concentrations in running buffer plus a well with only running buffer as a reference channel. KD was determined by steady-state analysis based on the average responses between 140 to 145 seconds of association phase, for binding to LGRS, RNF43, and ZNRF3. For the binding to ASGR, KD was determined by curve model fitting using the Octet® Red data analysis software (Fortebio)

In test [2] the target is human transferrin receptor 1 (TFR1), on cells (human, UniProt P02786 1-760). Kind of test: cell-based or functional assay.
Sequence of human transferrin receptor 1 (TFR1), on cells (P02786 whole entry, the tested form may be a part): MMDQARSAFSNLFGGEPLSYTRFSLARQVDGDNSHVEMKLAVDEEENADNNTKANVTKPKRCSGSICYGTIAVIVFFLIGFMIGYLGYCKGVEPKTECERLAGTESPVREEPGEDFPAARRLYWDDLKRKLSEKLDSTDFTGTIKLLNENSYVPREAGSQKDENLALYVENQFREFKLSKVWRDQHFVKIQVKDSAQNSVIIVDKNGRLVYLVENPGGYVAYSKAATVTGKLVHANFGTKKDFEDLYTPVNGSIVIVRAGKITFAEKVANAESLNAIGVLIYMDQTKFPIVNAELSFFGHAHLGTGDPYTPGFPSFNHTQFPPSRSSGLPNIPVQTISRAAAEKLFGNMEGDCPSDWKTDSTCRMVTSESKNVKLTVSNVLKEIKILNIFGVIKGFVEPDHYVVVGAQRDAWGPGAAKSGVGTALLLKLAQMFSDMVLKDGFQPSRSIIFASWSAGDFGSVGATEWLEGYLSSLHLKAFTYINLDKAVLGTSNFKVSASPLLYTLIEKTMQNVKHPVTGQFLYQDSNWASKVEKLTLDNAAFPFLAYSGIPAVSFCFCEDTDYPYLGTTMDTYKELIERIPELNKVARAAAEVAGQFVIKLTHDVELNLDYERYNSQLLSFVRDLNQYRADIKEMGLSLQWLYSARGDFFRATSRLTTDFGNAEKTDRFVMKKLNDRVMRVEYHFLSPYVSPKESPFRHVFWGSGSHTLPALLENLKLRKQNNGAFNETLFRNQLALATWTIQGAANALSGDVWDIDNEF
The target of test [3] is T2, human ZNRF3 extracellular domain (hZNRF3 ECD) (human, UniProt Q9ULT6 56-219, biotinylated (His-Avi tag)).
T2 construct: Expressed with a His-Avi tag at the N-terminus and biotinylated; also called ZRNF3
T2 sequence: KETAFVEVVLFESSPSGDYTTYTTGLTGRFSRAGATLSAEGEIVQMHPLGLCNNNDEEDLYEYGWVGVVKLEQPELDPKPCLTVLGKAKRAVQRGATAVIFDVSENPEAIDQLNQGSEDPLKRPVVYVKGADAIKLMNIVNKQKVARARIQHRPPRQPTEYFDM
Kind of test: BLI (Octet), biotinylated ZNRF3 ECD on SA sensor. The protocol:
as §1

In test [4] the target is T3, human RNF43 extracellular domain (hRNF43 ECD) (human, UniProt Q68DV7 44-197, biotinylated (His-Avi tag)).
T3 construct: Expressed with a His-Avi tag at the N-terminus and biotinylated; also called human RNF3 (Q44-D198)
T3 sequence: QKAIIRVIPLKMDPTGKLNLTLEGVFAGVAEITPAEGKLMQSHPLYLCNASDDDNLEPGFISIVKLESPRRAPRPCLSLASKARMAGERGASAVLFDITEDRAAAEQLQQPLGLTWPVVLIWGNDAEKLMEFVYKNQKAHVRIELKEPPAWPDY
Kind of test: BLI (Octet), biotinylated RNF43 ECD on SA sensor. The protocol: as §1

Test [5] has as its target T2, human ZNRF3 extracellular domain …. Kind of test: BLI (Octet), biotinylated antigen on SA sensor, 1:1 fit. The protocol: (§2) Binding characterization of recombinant Fabs or IgG' s was carried out using Bio-Layer Interferometry (BLI) using the Octet Red 96 platform (PALL ForteBio, Fremont, Calif.) with streptavidin (SA) coated biosensors (PALL ForteBio,). […] Following immobilization, sensors were dipped into samples containing test molecules at seven concentrations. Values for KD were determined by fitting the resulting data with a 1:1 binding model.

Test [6] has the same target. Kind of test: BLI (Octet) KD grade: * = KD >= 1 uM. The protocol:
as §2

Test [7] shares this target. Kind of test: ELISA (binding specificity).
Test [8] deals with T3, human RNF43 extracellular domain …. Kind of test: ELISA (binding specificity).
The target in test [9] is T4, human ASGR1 extracellular domain (hASGR1 ECD) (human, UniProt P07306 62-291, biotinylated (His-Avi tag)).
T4 construct: His-Avi tag at the N-terminus, biotinylated for BLI; also called human ASGR1 ECD
T4 sequence: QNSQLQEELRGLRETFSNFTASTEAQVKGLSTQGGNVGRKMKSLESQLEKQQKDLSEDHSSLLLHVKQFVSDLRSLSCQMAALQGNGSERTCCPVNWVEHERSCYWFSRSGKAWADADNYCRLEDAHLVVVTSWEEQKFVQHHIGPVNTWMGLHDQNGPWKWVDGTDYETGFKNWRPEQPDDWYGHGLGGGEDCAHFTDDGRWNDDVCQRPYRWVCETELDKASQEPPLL
Kind of test: BLI, Fab on hASGR1; KD only in the figure.

Residue numbers refer to the chain shown, from its start. Names and notes keep the numbering of the source.

B1: αTFR1-RSPO2-RA (anti-TFR1, RSPO2 (F105R/F109A)) (other)
chain: QVQLQQSGPELVRPGVSVKISCKGSGYTFTDYAMHWVKQSHAKSLEWIGGISTYFGRTNYNQKFKGRATMTVDKSSSTAYMELARLTSEDSALYYCARGLSGNYVMDYWGQGTSVTVSSGGGGSGGGGSGGGGSDIVLFQSPASLAVSLGQRATISCRASESVDDYGNSFMHWYQQKPGQPPKLLIYRASNLESGIPARFSGSGSRTDFTLTINPVEADDVATYYCQQSNEAPPTFGGGTKLEIRGSGGSNPICKGCLSCSKDNGCSRCQQKLFFFLRREGMRQYGECLHSCPSGYYGHRAPDMNRCARCRIENCDSCRSKDACTKCKVGFYLHRGRCFDECPDGFAPLEETMECVEGGDYKDDDDKGSHHHHHHHH
notes: FLAG-His tag; also called αTFR-RSPO2-RA
As for B1, in [1], the binding result is on record as “no binding”. Also, the “potency in the HEK293 STF reporter assay with Wnt sources” value in test [2] was around 20 fold.

B2: αTFR1-RSPO2-WT (anti-TFR1, RSPO2 wild type) (other)
chain: B1 chain with R319F, A323F
For B2, in test [2], the “EC50 in the HEK293 STF reporter assay with Wnt sources” value was around 20 fold and the “potency in the HEK293 STF reporter assay with Wnt sources” value was around 400 fold.

B3: αTFR1-RSPO2-5mut (anti-TFR1, RSPO2 (R65A/R69A/Q70A/F105A/F109A)) (other)
chain: B1 chain with R279A, R283A, Q284A
notes: FLAG-His tag; also called αTFR1-RSPO2-Smut; αTFR-RPOS-5mut
As for B3, the binding result in test [3], in test [4] and in test [1] was “no binding” in each case.

B4: αGFP-RSPO2-5mut (anti-GFP, RSPO2 (R65A/R69A/Q70A/F105A/F109A)) (other)
chain: QVQLVESGGGLVQPGGSLRLSCAASGFTFSRYGMHWVRQAPGKGLEWVSGISSIGSNTYYADSVKGRFTISRDNSKNTLYLQMNSLRAEDTAVYYCARWYKTYIDVWGQGTLVTVSSGGGGSGGGGSGGGGSDIELTQPPSVSVAPGQTARISCSGDNLGKKYVYWYQQKPGQAPVLVIYGDDERPSGIPERFSGSNSGNTATLTISGTQAEDEADYYCASYDSSHILIVFGGGTKLTVLGSGGSNPICKGCLSCSKDNGCSRCQQKLFFFLRAEGMAAYGECLHSCPSGYYGHRAPDMNRCARCRIENCDSCRSKDACTKCKVGFYLHRGRCFDECPDGFAPLEETMECVEGGDYKDDDDKGSHHHHHHHH
notes: scFv against GFP fused to the RSPO2 Fu1-Fu2 fragment with five mutations; FLAG-His tag; also called αGFP-RSPO2-Smut
B4: in [1], the binding result is “no binding”.

B5: 028S-A09 (antibody, V domains shown)
VH: QVQLVQSGAEVKKPGASVKVSCKASGYRFTSYYLHWVRQAPGQGLEWMGWMNPKSGGTNYAQKFQGRVTMTRDTSTSTVYMELSSLRSEDTAVYYCARGGRSYGYWYFDLWGRGTLVTVSS
VL: EIVMTQSPATLSVSPGERATLSCRASQSVDSSYLAWYQQKPGQAPRLLIYAASARAAGIPARFSGSGSGTEFTLTISSLQSEDFAVYYCQQYYRSPPTFGQGTRLEIK
B5: in [5], binding was characterised by a dissociation constant (Kd) of 12.5 µM. The molecule also gave a KD in test [6] of at least 1 µM.

B6: 020S-F07 (antibody, V domains shown)
VH: EVQLLESGGGLVQPGGSLRLSCAASGFTFSNYAMGWVRQAPGKGLEWVSYISRSSSTIYYADSVKGRFTISRDNSKNTLYLQMNSLRAEDTAVYYCARRRDGYNWGYWGQGTLVTVSS
VL: DIQMTQSPSSLSASVGDRVTITCRASQDISNSLNWYQQKPGKAPKLLIYAASTLQSGVPSRFSGSGSGTDFTLTISSLQPEDFATYYCQQSYSPPHTFGGGTKVEIK
Take B6: the binding result in test [7] and in test [8] was “binds” each time.

B7: 028S-E10 (antibody, V domains shown)
VH: QVQLVQSGAEVKKPGASVKVSCKASGYTFTSYYMHWVRQAPGQGLEWMGWINPNTGGTKSAQKFQGRVTMTRDTSTSTVYMELSSLRSEDTAVYYCARVLRGSLGFDYWGQGTLVTVSS
VL: B6 VL with N31R, S32Y, N34A, L54V, Q55E, S93R, P94S, H96Y, G100Q, V104L
Consider B7, for which the Kd in test [5] stood at 4.16 µM. Further, the KD in test [6] was at least 1 µM.

B8: 020S-D07 (antibody, V domains shown)
VH: QVQLVQSGAEVKKPGSSVKVSCKASGGTFSNTDINWVRQAPGQGLEWMGGIIPIFGTANYAQKFQGRVTITADESTSTAYMELSSLRSEDTAVYYCVGGRSGWIWYFDLWGRGTLVTVSS
VL: DIQMTQSPSSLSASVGDRVTITCRASQSISRWLAWYQQKPGKAPKLLIYDASSLETGVPSRFSGSGSGTDFTLTISSLQPEDFATYYCQQAYSFPWTFGQGTKVEIK
Turning to B8, the binding result in [7] and in test [8] was “binds” each time.

B9: 028S-E08 (antibody, V domains shown)
VH: EVQLLESGGGLVQPGGSLRLSCAASGFSFSNYAMSWVRQAPGKGLEWVSAISGSGRTTYYADSVKGRFTISRDNSKNTLYLQMNSLRAEDTAVYYCARRTSSFSLWGQGTLVTVSS
VL: B8 VL with S30N, R31N, D50K, T56S, Y92N, S93T, W96I, K103R, V104L
Molecule B9 showed a Kd in test [5] of 3.9 µM. Moreover, the KD in test [6] was at least 1 µM.

B10: 024S-D03 Fab (Fab, V domains shown)
VH: QVQLQQSGPGLVKPSQTLSLTCAISGDSVSSNSAAWNWMRQSPSRGLEWLGRTYYRSKWYNDYAVSVKSRMTINPDTSRNQFSLQLNSVTLEDTAVYYCARWNHEEHYFDYWGQGTLVTVSS
VL: EIVLTQSPATLSFSPGERATLSCRASQSVGSYLAWYQQRPGQAPRPLIYDATNRATGIPTRFSGSGSGTDFTLTISSLEPEDFATYYCQHRRTFGRGTKLEIK
notes: Tested as Fab, identified by phage display
For B10, in test [9], the binding result is given as “binds”.

B11: 024S-A04 Fab (Fab, V domains shown)
VH: QVQLQQSGPGLVKPSQTLSLTCAISGDSVSSNSVAWNWMRQSPSRGLEWLGRTYYRSKWYYDYAVSVKSRITINPDTSKNQFSLQLNSVTPEDTAVYYCASWTRGAFDIWGQGTMVTVSS
VL: B10 VL with E1D, V3Q
notes: as for B10
With B11, the binding result in test [9] is given as “binds”.

B12: 024S-E03 Fab (Fab, V domains shown)
VH: B10 VH with D27A, M39I, M71I, R79K, L91P, E92G
VL: B10 VL with E1D, I2V, L4M
notes: as for B10
In the case of B12, in test [9], the binding result was “binds”.

For the origin of these results see patent US20210380678A1 (SURROZEN OPERATING, published 2021).
